The values below come from article PMC5256278.

For assay [1], the target named is squid hemocyanin (Todarodes pacificus) (Todarodes pacificus). In words: SAXS; untreated control Hc (0.1 MPa, 25 °C) in solution; Kratky-type camera; aggregation numbers calculated with SAXS Quant 2.0.
Assay [2] has the same target. In words: SAXS; Hc after high hydrostatic pressure at 200 MPa for 20 min; Kratky-type camera; aggregation numbers calculated with SAXS Quant 2.0.
Assay [3] shares this target. The assay can be described thus: SAXS; Hc after high hydrostatic pressure at 400 MPa for 20 min; Kratky-type camera; aggregation numbers calculated with SAXS Quant 2.0.
Assay [4] shares this target. In words: SAXS; Hc after high hydrostatic pressure at 600 MPa for 20 min; Kratky-type camera; aggregation numbers calculated with SAXS Quant 2.0.

On to “squid hemocyanin (Todarodes pacificus) (natural protein)”, for which the 〈Nagg〉G (Guinier aggregation number) is 10.2 in assay [1], 11.9 in assay [2], 14.2 in assay [3] and 16 in assay [4]. The 〈Nagg〉Q (average aggregation number) is 9.3 in assay [1], 12.7 in assay [2], 14.4 in assay [3] and 15.2 in assay [4].
